Data taken from paper PMC10958042.

B1: ATGL (PNPLA2, patatin-like phospholipase domain-containing protein 2), human, full length / CGI-58 (ABHD5, 1-acylglycerol-3-phosphate O-acyltransferase ABHD5), human (parent)
chain 1: MFPREKTWNISFAGCGFLGVYYVGVASCLREHAPFLVANATHIYGASAGALTATALVTGVCLGEAGAKFIEVSKEARKRFLGPLHPSFNLVKIIRSFLLKVLPADSHEHASGRLGISLTRVSDGENVIISHFNSKDELIQANVCSGFIPVYCGLIPPSLQGVRYVDGGISDNLPLYELKNTITVSPFSGESDICPQDSSTNIHELRVTNTSIQFNLRNLYRLSKALFPPEPLVLREMCKQGYRDGLRFLQRNGLLNRPNPLLALPPARPHGPEDKDQAVESAQAEDYSQLPGEDHILEHLPARLNEALLEACVEPTDLLTTLSNMLPVRLATAMMVPYTLPLESALSFTIRLLEWLPDVPEDIRWMKEQTGSICQYLVMRAKRKLGRHLPSRLPEQVELRRVQSLPSVPLSCAAYREALPGWMRNNLSLGDALAKWEECQRQLLLGLFCTNVAFPPEALRMRAPADPAPAPADPASPQHQLAGPAPLLSTPAPEARPVIGALGL
chain 2: MAAEEEEVDSADTGERSGWLTGWLPTWCPTSISHLKEAEEKMLKCVPCTYKKEPVRISNGNKIWTLKFSHNISNKTPLVLLHGFGGGLGLWALNFGDLCTNRPVYAFDLLGFGRSSRPRFDSDAEEVENQFVESIEEWRCALGLDKMILLGHNLGGFLAAAYSLKYPSRVNHLILVEPWGFPERPDLADQDRPIPVWIRALGAALTPFNPLAGLRIAGPFGLSLVQRLRPDFKRKYSSMFEDDTVTEYIYHCNVQTPSGETAFKNMTIPYGWAKRPMLQRIGKMHPDIPVSVIFGARSCIDGNSGTSIQSLRPHSYVKTIAILGAGHYVYADQPEEFNQKVKEICDTVD

Variants of: B1
Test: LUMIER: Protein A-ATGL variant and firefly luciferase-partner co-expressed in HEK293T, lysates immunoprecipitated on IgG-coated plates, co-precipitated partner measured as luciferase luminescence
Details: with CGI-58 (ABHD5, 1-acylglycerol-3-phosphate O-acyltransferase ABHD5), transient co-transfection, IgG-coated LUMITRAC plates, 2 h at 4 °C, three PBS washes, Bright-Glo luciferase reagent, triplicates per assay, two …, scale: log2 fold change of co-immunoprecipitated luminescence relative to wild-type ATGL within each experiment

screen value (parent: 0.32, not graded) | screen value (parent: 0.45, not graded) | Variant
0.291 | 0.0407 | chain 1 MFPREKTWNISFAGCGFLGVYYVGVASCLREHAPFLVANATHIYGASAGALTATALVTGVCLGEAGAKFIEVSKEARKRFLGPLHPSFNLVKIIRSFLLKVLPEDSHEHASGRLGISLTRVSDGENVIISHFNSKDELIQANVCSGFIPVYCGLIPPSLQGVRYVDGGISDNLPLYELKNTITVSPFSGESDICPQDSSTNIHELRVTNTSIQFNLRNLYRLSKALFPPEPLVLREMCKQGYRDGLRFLQRNGLLNRPNPLLALPPARPHGPEDKDQAVESAQAEDYSQLPGEDHILEHLPARLNEALLEACVEPTDLLTTLSNMLPVRLATAMMVPYTLPLESALSFTIRLLEWLPDVPEDIRWMKEQTGSICQYLVMRAKRKLGRHLPSRLPEQVELRRVQSLPSVPLSCAAYREALPGWMRNNLSLGDALAKWEECQRQLLLGLFCTNVAFPPEALRMRAPADPAPAPADPASPQHQLAGPAPLLSTPAPEARPVIGALGL [chain 1 A104E]
0.0792 | 0.226 | chain 1 MFPREKTWNISFAGCGFLGVYYVGVASCLREHAPFLVANATHIYGASAGALTATALVTGVCLGEAGAKFIEVSKEARKRFLGPLHPSFNLVKIIRSFLLKVLPADSHEHASGRLGISLTRVSDGENVIISHFNSKDELIQANVCSGFIPVYCGLIPPSLQGVRYVDGGISDNLPLYELKNTITVSPFSGESDICPQDSSTNIHELRVTNTSIQFNLRNLYRLSKALFPPEPLVLREMCKQGYRDGLRFLQRNGLLNRPNPLLALPPARPHGPEDKDQAVESAQAEDYSQLPGEDHILEHLPARLNEALLEACVEPTDLLTTLSNMLPVRLATAMMVPYTLPLESALSFTIRLLEWLPDVPEDIRWMKEQTGSICQYLVMRAKRKLGRHLPSRLPEQVELRRVQSLPSVPLSCAAYREALPGWMRNNLSLGDALLKWEECQRQLLLGLFCTNVAFPPEALRMRAPADPAPAPADPASPQHQLAGPAPLLSTPAPEARPVIGALGL [chain 1 A434L]
0.381 | 0.474 | chain 1 MFPREKTWNISFAGCGFLGVYYVGVASCLREHAPFLVANATHIYGASAGALTATALVTGVCLGEAGAKFIEVSKEARKRFLGPLHPSFNLVKIIRSFLLKVLPADSHEHASGRLGISLTRVSDGENVIISHFNSKDELIQANVCSGFIPVYCGLIPPSLQGVRYVDGGISDNLPLYELKNTITVSPFSGESDICPQDSSTNIHELRVTNTSIQFNLRNLYRLSKALFPPEPLVLREMCKQGYRDGLRFLQRNGLLNRPNPLLALPPARPHGPEDKDQAVESAQAEDYSQLPGEDHILEHLPARLNEALLEACVEPTDLLTTLSNMLPVRLATAMMVPYTLPLESALSFTIRLLEWLPDVPEDIRWMKEQTGSICQYLVMRAKRKLGRHLPSRLPEQVELRRVQSLPSVPLSCAAYREALPGWMRNNLSLGDALAKWEECQRQLLLGLFCTNVEFPPEALRMRAPADPAPAPADPASPQHQLAGPAPLLSTPAPEARPVIGALGL [chain 1 A453E]
